Measurements taken from patent publication US11872270B2, “A*03 restricted peptides for use in immunotherapy against cancers and related methods” (Immatics Biotechnologies GmbH, priority 2018, dated 2024).

Target: HLA-A*03:01 (Homo sapiens, UniProt P04439)
Assay: MHC binding assay (UV-ligand exchange, β2m ELISA)
Details: binding to HLA-A*03:01, UV-ligand exchange, β2m ELISA
Source text: Candidate peptides for T cell based therapies according to the present invention were further tested for their MHC binding capacity (affinity). The individual peptide-MHC complexes were produced by UV-ligand exchange, where a UV-sensitive peptide is cleaved upon UV-irradiation and exchanged with the peptide of interest as analyzed. Only peptide candidates that can effectively bind and stabilize the peptide-receptive MHC molecules prevent dissociation of the MHC complexes. To determine the yield of the exchange reaction, an ELISA was performed based on the detection of the light chain (β2m) of stabilized MHC complexes. The assay was performed as generally described in Rodenko et al. (Rodenko et al., 2006) 96 well MAXISorp plates (NUNC) were coated over night with 2 ug/ml streptavidin in PBS at room temperature, washed 4× and blocked for 1 h at 37° C. in 2% BSA containing blocking buffer. Refolded HLA-A*02:01/MLA-001 monomers served as standards, covering the range of 15-500 ng/ml. Peptide-MHC monomers of the UV-exchange reaction were diluted 100-fold in blocking buffer. Samples were incubated for 1 h at 37° C., washed four times, incubated with 2 ug/ml HRP conjugated anti-β2m for 1 h at 37° C., washed again and detected with TMB solution that is stopped with […]. Absorption was measured at 450 nm. Candidate peptides that show a high exchange yield (preferably higher than 50%, most preferred higher than 75%) are generally preferred for a generation and production of antibodies or fragments thereof, and/or T cell receptors or fragments thereof, as they show sufficient avidity to the MHC molecules and prevent dissociation of the MHC complexes.

Substance | Peptide exchange (MHC class I binding score, peptide exchange yield)
1 (RVYPHKTLY; listed as Homo sapiens) [compound 1] | +++ (>50 = +++)
2 (KVMPKQTWK; listed as Homo sapiens) [compound 2] | +++ (>50 = +++)
3 (LLYGNGPGYVLK; listed as Homo sapiens) [compound 3] | ++++ (>75% = ++++)
6 (SIFGLAPGK; listed as Homo sapiens) [compound 6] | ++++ (>75% = ++++)
7 (RLVELAGQSLLK; listed as Homo sapiens) [compound 7] | ++++ (>75% = ++++)
9 (HVLYPVPLESY; listed as Homo sapiens) [compound 9] | +++ (>50 = +++)
10 (KARDLRTPK; listed as Homo sapiens) [compound 10] | +++ (>50 = +++)
11 (PLPRPGAVLK; listed as Homo sapiens) [compound 11] | ++ (>20% = ++)
12 (KVLTRNIEY; listed as Homo sapiens) [compound 12] | +++ (>50 = +++)
13 (AVAFFVLPSK; listed as Homo sapiens) [compound 13] | ++++ (>75% = ++++)
14 (VAFFVLPSK; listed as Homo sapiens) [compound 14] | ++ (>20% = ++)
15 (RLYAPVVNISRL; listed as Homo sapiens) [compound 15] | +++ (>50 = +++)
16 (KVFAEHKISY; listed as Homo sapiens) [compound 16] | +++ (>50 = +++)
17 (GGLSSQGVYY; listed as Homo sapiens) [compound 17] | ++ (>20% = ++)
18 (RLYYSFKNITK; listed as Homo sapiens) [compound 18] | ++++ (>75% = ++++)
19 (ALAAKLEVK; listed as Homo sapiens) [compound 19] | ++++ (>75% = ++++)
20 (LLPTVLIKK; listed as Homo sapiens) [compound 20] | +++ (>50 = +++)
21 (SSLAELIAK; listed as Homo sapiens) [compound 21] | ++ (>20% = ++)
22 (EGLFLLGCVK; listed as Homo sapiens) [compound 22] | +++ (>50 = +++)
23 (RLSPGPRAY; listed as Homo sapiens) [compound 23] | +++ (>50 = +++)
24 (KLETGVVKK; listed as Homo sapiens) [compound 24] | ++++ (>75% = ++++)
25 (KTWAHCMSY; listed as Homo sapiens) [compound 25] | ++++ (>75% = ++++)

Substance | Peptide exchange (MHC class I binding score, peptide exchange yield)
26 (QLGYQAAVLK; listed as Homo sapiens) [compound 26] | +++ (>50 = +++)
27 (SGSTLECILYK; listed as Homo sapiens) [compound 27] | ++++ (>75% = ++++)
28 (STLECILYK; listed as Homo sapiens) [compound 28] | ++++ (>75% = ++++)
30 (ILDSSLLK; listed as Homo sapiens) [compound 30] | ++ (>20% = ++)
31 (HAFFPKTHR; listed as Homo sapiens) [compound 31] | ++++ (>75% = ++++)
32 (LLDAEPPILY; listed as Homo sapiens) [compound 32] | + (>10% = +)
34 (AIGTPLIGK; listed as Homo sapiens) [compound 34] | +++ (>50 = +++)
35 (VLLLLSLLH; listed as Homo sapiens) [compound 35] | ++ (>20% = ++)
36 (QIRAELMKK; listed as Homo sapiens) [compound 36] | ++++ (>75% = ++++)
37 (EVILTTKTPK; listed as Homo sapiens) [compound 37] | ++ (>20% = ++)
38 (SLFPYYNNLY; listed as Homo sapiens) [compound 38] | + (>10% = +)
39 (KTQFPQLK; listed as Homo sapiens) [compound 39] | ++ (>20% = ++)
40 (ALNDRFAGY; listed as Homo sapiens) [compound 40] | +++ (>50 = +++)
41 (RLGAARGQLR; listed as Homo sapiens) [compound 41] | ++ (>20% = ++)
42 (RVCMTVDSLVNK; listed as Homo sapiens) [compound 42] | ++++ (>75% = ++++)
43 (TVYDSIWCNMK; listed as Homo sapiens) [compound 43] | ++++ (>75% = ++++)
44 (HAFPPGPNY; listed as Homo sapiens) [compound 44] | + (>10% = +)
47 (ALFGNALVFY; listed as Homo sapiens) [compound 47] | ++++ (>75% = ++++)
48 (KGWNGQIFK; listed as Homo sapiens) [compound 48] | +++ (>50 = +++)
49 (ITAPLMPLGK; listed as Homo sapiens) [compound 49] | ++++ (>75% = ++++)
50 (HSAGIFSMY; listed as Homo sapiens) [compound 50] | ++ (>20% = ++)
51 (VTADGALAMEK; listed as Homo sapiens) [compound 51] | +++ (>50 = +++)

Substance | Peptide exchange (MHC class I binding score, peptide exchange yield)
53 (KQALSLVRK; listed as Homo sapiens) [compound 53] | +++ (>50 = +++)
54 (GVTITKTLK; listed as Homo sapiens) [compound 54] | +++ (>50 = +++)
55 (RLSAESKDLLK; listed as Homo sapiens) [compound 55] | +++ (>50 = +++)
56 (TTYYPSPLNK; listed as Homo sapiens) [compound 56] | +++ (>50 = +++)
58 (VLYRPQLEK; listed as Homo sapiens) [compound 58] | ++++ (>75% = ++++)
59 (KINQYIIKK; listed as Homo sapiens) [compound 59] | +++ (>50 = +++)
60 (VVFPFPVNKR; listed as Homo sapiens) [compound 60] | +++ (>50 = +++)
61 (SLYDSEPRKK; listed as Homo sapiens) [compound 61] | ++++ (>75% = ++++)
62 (GIFPKIMPK; listed as Homo sapiens) [compound 62] | ++++ (>75% = ++++)
63 (SSFRPLLSK; listed as Homo sapiens) [compound 63] | ++++ (>75% = ++++)
65 (RTIEELQNK; listed as Homo sapiens) [compound 65] | +++ (>50 = +++)
66 (RVKEIVINK; listed as Homo sapiens) [compound 66] | +++ (>50 = +++)
67 (VVREILHAQTLK; listed as Homo sapiens) [compound 67] | +++ (>50 = +++)
68 (KGPMAGILAY; listed as Homo sapiens) [compound 68] | ++ (>20% = ++)
70 (VTAVASLLK; listed as Homo sapiens) [compound 70] | ++++ (>75% = ++++)
72 (KLYPQCLQK; listed as Homo sapiens) [compound 72] | ++++ (>75% = ++++)
73 (RCFSGPYLNK; listed as Homo sapiens) [compound 73] | ++++ (>75% = ++++)
75 (IIFVPEMNK; listed as Homo sapiens) [compound 75] | ++++ (>75% = ++++)
76 (IINESLLFY; listed as Homo sapiens) [compound 76] | +++ (>50 = +++)
78 (KTGTFVLYKS; listed as Homo sapiens) [compound 78] | +++ (>50 = +++)
